What follows are binders tested against soluble, recombinant SUDV GP (Boniface variant), residues 33-649 (Sudan ebolavirus (Boniface variant), UniProt Q66814).

Binder | binding result
31C7 (antibody, V domains shown) VH: EVQLVESGGGLVQPGGSLRLSCAASGFAFNYYDMFWVRQAPGKGLEWVAYINPGGGNTYYADSVKGRFTISADTSKNTAYLQMNSLRAEDTAVYYCARQLYGNSFLDYWGQGTLVTV VL: DIQMTQSPSSLSASVGDRVTITCKASQDVTTAVAWYQQKPGKAPKLLIYWASSRYPGVPSRFSGSGSGTDFTLTISSLQPEDFATYYCQQHYSTPLTFGQGTKVEI | binds
34F5 (antibody, V domains shown) VH: EVQLVESGGGLVQPGGSLRLSCAASGFAFNYYDMFWVRQAPGKGLEWVAYINSGGGNTYYPDSVKGRFTISADTSKNTAYLQMNSLRAEDTAVYYCARQLYGNSFFDYWGQGTLVTV VL: DIQMTQSPSSLSASVGDRVTITCKASQDVTTAVAWYQQKPGKAPKLLIYWASARHRGVPSRFSGSGSGTDFTLTISSLQPEDFATYYCQQHYSTPLTFGQGTKVEI | binds
35B5 (antibody, V domains shown) VH: EVQLVESGGGLVQPGGSLRLSCAASGFAFNYYDMFWVRQAPGKGLEWVAYINSGGGNTYYPDSVKGRFTISADTSKNTAYLQMNSLRAEDTAVYYCARQLYGNSFFDYWGQGTLVTV VL: DIQMTQSPSSLSASVGDRVTITCKASQDVTTAVAWYQQKPGKAPKLLIYWASTRHTGVPSRFSGSGSGTDFTLTISSLQPEDFATYYCQQHYSTPLTFGQGTKVEI | binds
51B6 (antibody, V domains shown) VH: EVQLVESGGGLVQPGGSLRLSCAASGFAFNYYDLYWVRQAPGKGLEWVAYINPGGGNTYYPDSVKGRFTISADTSKNTAYLQMNSLRAEDTAVYYCARQLYGNSFFDYWGQGTLVTV VL: DIQMTQSPSSLSASVGDRVTITCKASQDVTTAVAWYQQKPGKAPKLLIYWASTRHTGVPSRFSGSGSGTDFTLTISSLQPEDFATYYCQQHYSTPLTFGQGTKVEI | binds
